We go through 125 sequences from the supplement of paper PMC9112550, “Optimization of the antimicrobial peptide Bac7 by deep mutational scanning” (BMC Biology, 2022).

This data set concerns Escherichia coli TOP10. The data set is described as follows: shrunken log2 fold change of peptide-encoding DNA abundance (4.5 h post-induction vs induction); higher = less antimicrobial activity (less host growth inhibition). To be noted: time post-induction: 4.5 h; library: site-saturation at positions 5, 18, 19, 20.
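Note: peptides expressed intracellularly from a pBAD plasmid library in pooled LB shake-flask culture, induced with 0.3% L-arabinose, DNA abundance read by NGS, three biological replicates, DESeq2 with apeglm shrinkage.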

As for RRIRFRPPRLPRPRPRPGRHPRP, the “shrunken log2 fold change” value is 0.0867.

With RRIRVRPPRLPRPRPRPGCCPRP, the “shrunken log2 fold change” value was determined as 0.385.

Regarding RRIRMRPPRLPRPRPRPQTSPRP, the “shrunken log2 fold change” value came to 0.339.

RRIRLRPPRLPRPRPRPSISPRP: the “shrunken log2 fold change” value is -0.655.

Regarding RRIRTRPPRLPRPRPRPATKPRP, the “shrunken log2 fold change” value was determined as 0.0756.

Turning to RRIRLRPPRLPRPRPRPGCCPRP, the “shrunken log2 fold change” value worked out at 0.387.

On to RRIRGRPPRLPRPRPRPANWPRP, for which the “shrunken log2 fold change” value amounted to 0.731.

As for RRIRSRPPRLPRPRPRPVLHPRP, the “shrunken log2 fold change” value was -0.201.

Consider RRIRARPPRLPRPRPRPEGAPRP, for which the “shrunken log2 fold change” value is 1.37.

In the case of RRIRMRPPRLPRPRPRPRFYPRP, the “shrunken log2 fold change” value stood at 0.322.

With RRIRYRPPRLPRPRPRPMPFPRP, the “shrunken log2 fold change” value was determined as 0.00489.

Take RRIRRRPPRLPRPRPRPWWNPRP: the “shrunken log2 fold change” value is -0.188.

With RRIRRRPPRLPRPRPRPKCYPRP, the “shrunken log2 fold change” value came to 0.00463.

For RRIRLRPPRLPRPRPRPPMYPRP, the “shrunken log2 fold change” value was -0.093.

Turning to RRIRLRPPRLPRPRPRPRNPPRP, the “shrunken log2 fold change” value is -0.0997.

In the case of RRIRARPPRLPRPRPRPLSHPRP, the “shrunken log2 fold change” value is 0.186.

Regarding RRIRMRPPRLPRPRPRPTQHPRP, the “shrunken log2 fold change” value came to 0.717.

For RRIRVRPPRLPRPRPRPDMFPRP, the “shrunken log2 fold change” value was 0.0441.

As for RRIRERPPRLPRPRPRPINAPRP, the “shrunken log2 fold change” value was -0.129.

Consider RRIRWRPPRLPRPRPRPEDVPRP, for which the “shrunken log2 fold change” value was determined as 0.0895.

As for RRIRTRPPRLPRPRPRPTWRPRP, the “shrunken log2 fold change” value worked out at 0.233.

As to RRIRGRPPRLPRPRPRPEMCPRP, the “shrunken log2 fold change” value was 1.4.

Turning to RRIRSRPPRLPRPRPRPQTHPRP, the “shrunken log2 fold change” value worked out at 0.901.

As to RRIRSRPPRLPRPRPRPNIPPRP, the “shrunken log2 fold change” value was -0.492.

RRIRKRPPRLPRPRPRPADMPRP: the “shrunken log2 fold change” value turned out to be 0.399.

RRIRCRPPRLPRPRPRPGINPRP: the “shrunken log2 fold change” value is -0.31.

RRIRLRPPRLPRPRPRPWPGPRP: the “shrunken log2 fold change” value stood at 0.0987.

With RRIRFRPPRLPRPRPRPSDHPRP, the “shrunken log2 fold change” value was -0.221.

Regarding RRIRVRPPRLPRPRPRPGFMPRP, the “shrunken log2 fold change” value was -0.152.

On to RRIRHRPPRLPRPRPRPYFLPRP, for which the “shrunken log2 fold change” value is -0.996.

As to RRIRLRPPRLPRPRPRPNIAPRP, the “shrunken log2 fold change” value was -0.0706.

Consider RRIRIRPPRLPRPRPRPVPHPRP, for which the “shrunken log2 fold change” value is 0.0565.

For RRIRMRPPRLPRPRPRPVQPPRP, the “shrunken log2 fold change” value came to 0.229.

With RRIRRRPPRLPRPRPRPEAGPRP, the “shrunken log2 fold change” value was determined as 0.731.

Take RRIRARPPRLPRPRPRPHPAPRP: the “shrunken log2 fold change” value stood at 0.478.

In the case of RRIRERPPRLPRPRPRPWQLPRP, the “shrunken log2 fold change” value is -0.072.

In the case of RRIRSRPPRLPRPRPRPTTRPRP, the “shrunken log2 fold change” value is 0.222.

Consider RRIRARPPRLPRPRPRPILYPRP, for which the “shrunken log2 fold change” value is -0.348.

For the sequence RRIRGRPPRLPRPRPRPPSKPRP, the “shrunken log2 fold change” value amounted to 0.58.

As to RRIRPRPPRLPRPRPRPRDEPRP, the “shrunken log2 fold change” value was 0.0975.

Turning to RRIRIRPPRLPRPRPRPHDMPRP, the “shrunken log2 fold change” value was -0.226.

Regarding RRIRARPPRLPRPRPRPFTAPRP, the “shrunken log2 fold change” value was -0.111.

Consider RRIRERPPRLPRPRPRPANFPRP, for which the “shrunken log2 fold change” value was -0.163.

Turning to RRIRIRPPRLPRPRPRPEWKPRP, the “shrunken log2 fold change” value came to 0.0442.

In the case of RRIRKRPPRLPRPRPRPEGWPRP, the “shrunken log2 fold change” value came out at 1.46.

In the case of RRIRLRPPRLPRPRPRPWMGPRP, the “shrunken log2 fold change” value is -0.363.

For the sequence RRIRKRPPRLPRPRPRPSLMPRP, the “shrunken log2 fold change” value was 0.256.

Regarding RRIRLRPPRLPRPRPRPIDHPRP, the “shrunken log2 fold change” value is -0.154.

Regarding RRIRERPPRLPRPRPRPWCEPRP, the “shrunken log2 fold change” value was -0.349.

As for RRIRWRPPRLPRPRPRPAGVPRP, the “shrunken log2 fold change” value stood at 0.66.

As to RRIRPRPPRLPRPRPRPAFWPRP, the “shrunken log2 fold change” value was found to be 0.459.

In the case of RRIRARPPRLPRPRPRPNNDPRP, the “shrunken log2 fold change” value was determined as 0.026.

Consider RRIRPRPPRLPRPRPRPINLPRP, for which the “shrunken log2 fold change” value is -0.994.

Regarding RRIRIRPPRLPRPRPRPVTMPRP, the “shrunken log2 fold change” value is -1.03.

As to RRIRMRPPRLPRPRPRPITTPRP, the “shrunken log2 fold change” value is -0.0401.

For RRIRLRPPRLPRPRPRPPGIPRP, the “shrunken log2 fold change” value is -0.383.

Take RRIRLRPPRLPRPRPRPDIMPRP: the “shrunken log2 fold change” value was -0.0927.

As for RRIRARPPRLPRPRPRPSLKPRP, the “shrunken log2 fold change” value is -0.0764.

Consider RRIRPRPPRLPRPRPRPDFQPRP, for which the “shrunken log2 fold change” value came to 0.262.

As to RRIRMRPPRLPRPRPRPGFWPRP, the “shrunken log2 fold change” value amounted to 0.836.

Turning to RRIRARPPRLPRPRPRPITEPRP, the “shrunken log2 fold change” value is -0.38.

Turning to RRIRKRPPRLPRPRPRPNIRPRP, the “shrunken log2 fold change” value is -0.0456.

Take RRIRCRPPRLPRPRPRPRTLPRP: the “shrunken log2 fold change” value is 0.209.

For RRIRVRPPRLPRPRPRPPPWPRP, the “shrunken log2 fold change” value was determined as 0.758.

With RRIRKRPPRLPRPRPRPLSTPRP, the “shrunken log2 fold change” value is 0.025.

Take RRIRERPPRLPRPRPRPGKFPRP: the “shrunken log2 fold change” value was -0.0178.

Regarding RRIRLRPPRLPRPRPRPVENPRP, the “shrunken log2 fold change” value is -0.209.

With RRIRFRPPRLPRPRPRPVHHPRP, the “shrunken log2 fold change” value is -0.00203.

On to RRIRDRPPRLPRPRPRPTGMPRP, for which the “shrunken log2 fold change” value was -0.00655.

For the sequence RRIRHRPPRLPRPRPRPKGEPRP, the “shrunken log2 fold change” value is -0.0141.

In the case of RRIRNRPPRLPRPRPRPQQVPRP, the “shrunken log2 fold change” value is -0.0087.

For RRIRYRPPRLPRPRPRPLSLPRP, the “shrunken log2 fold change” value is -1.1.

For RRIRKRPPRLPRPRPRPHCAPRP, the “shrunken log2 fold change” value is -0.00229.

On to RRIRWRPPRLPRPRPRPYIHPRP, for which the “shrunken log2 fold change” value was -0.405.

Take RRIRERPPRLPRPRPRPCEMPRP: the “shrunken log2 fold change” value was 0.118.

For the sequence RRIRSRPPRLPRPRPRPNQIPRP, the “shrunken log2 fold change” value amounted to 0.0721.

As for RRIRERPPRLPRPRPRPRYTPRP, the “shrunken log2 fold change” value is -0.244.

In the case of RRIRMRPPRLPRPRPRPRAKPRP, the “shrunken log2 fold change” value is 1.25.

As for RRIRCRPPRLPRPRPRPIIEPRP, the “shrunken log2 fold change” value was -0.851.

Take RRIRFRPPRLPRPRPRPYICPRP: the “shrunken log2 fold change” value was -0.4.

RRIRERPPRLPRPRPRPRENPRP: the “shrunken log2 fold change” value was -0.362.

For RRIRERPPRLPRPRPRPTVCPRP, the “shrunken log2 fold change” value amounted to 0.141.

As to RRIRPRPPRLPRPRPRPCPCPRP, the “shrunken log2 fold change” value was -0.481.

Consider RRIRWRPPRLPRPRPRPTHMPRP, for which the “shrunken log2 fold change” value was 0.206.

For the sequence RRIRGRPPRLPRPRPRPIYAPRP, the “shrunken log2 fold change” value turned out to be 0.14.

Take RRIRARPPRLPRPRPRPIKSPRP: the “shrunken log2 fold change” value was determined as 0.226.

RRIRIRPPRLPRPRPRPVNSPRP: the “shrunken log2 fold change” value was -0.319.

For RRIRHRPPRLPRPRPRPNHYPRP, the “shrunken log2 fold change” value is -0.939.

For RRIRARPPRLPRPRPRPTPSPRP, the “shrunken log2 fold change” value turned out to be 0.791.

For RRIRHRPPRLPRPRPRPAYCPRP, the “shrunken log2 fold change” value came out at 0.119.

Consider RRIRSRPPRLPRPRPRPELYPRP, for which the “shrunken log2 fold change” value was -0.00809.

RRIRMRPPRLPRPRPRPIMRPRP: the “shrunken log2 fold change” value came to 0.537.

As to RRIRPRPPRLPRPRPRPDHDPRP, the “shrunken log2 fold change” value was -0.306.

Take RRIRSRPPRLPRPRPRPMVWPRP: the “shrunken log2 fold change” value was 0.0214.

With RRIRLRPPRLPRPRPRPKTNPRP, the “shrunken log2 fold change” value was -0.0556.

For RRIRTRPPRLPRPRPRPEMWPRP, the “shrunken log2 fold change” value came out at 0.0446.

Turning to RRIRCRPPRLPRPRPRPLICPRP, the “shrunken log2 fold change” value is -0.499.

For RRIRMRPPRLPRPRPRPRNKPRP, the “shrunken log2 fold change” value turned out to be 0.667.

In the case of RRIRFRPPRLPRPRPRPDIRPRP, the “shrunken log2 fold change” value stood at 0.0306.

In the case of RRIRHRPPRLPRPRPRPHAGPRP, the “shrunken log2 fold change” value is -0.245.

As for RRIRARPPRLPRPRPRPGYWPRP, the “shrunken log2 fold change” value was determined as 0.363.

With RRIRDRPPRLPRPRPRPSQYPRP, the “shrunken log2 fold change” value was -0.697.

Turning to RRIRMRPPRLPRPRPRPCFDPRP, the “shrunken log2 fold change” value was 0.0386.

As for RRIRFRPPRLPRPRPRPLCIPRP, the “shrunken log2 fold change” value is -0.571.

Regarding RRIRCRPPRLPRPRPRPLDHPRP, the “shrunken log2 fold change” value was -0.289.

On to RRIRHRPPRLPRPRPRPNEHPRP, for which the “shrunken log2 fold change” value amounted to 0.409.

On to RRIRARPPRLPRPRPRPQPDPRP, for which the “shrunken log2 fold change” value was found to be 0.254.

RRIRPRPPRLPRPRPRPNDCPRP: the “shrunken log2 fold change” value is 0.0214.

In the case of RRIRHRPPRLPRPRPRPMCCPRP, the “shrunken log2 fold change” value is 0.101.

With RRIRVRPPRLPRPRPRPVCLPRP, the “shrunken log2 fold change” value came to 0.619.

On to RRIRHRPPRLPRPRPRPGDQPRP, for which the “shrunken log2 fold change” value is -0.0414.

Turning to RRIRKRPPRLPRPRPRPPVVPRP, the “shrunken log2 fold change” value was found to be 0.453.

For RRIRYRPPRLPRPRPRPPDQPRP, the “shrunken log2 fold change” value is -0.145.

As to RRIRERPPRLPRPRPRPSMGPRP, the “shrunken log2 fold change” value was -0.817.

For the sequence RRIRQRPPRLPRPRPRPCKHPRP, the “shrunken log2 fold change” value was -1.29.

Turning to RRIRGRPPRLPRPRPRPENIPRP, the “shrunken log2 fold change” value is 0.204.

For RRIRNRPPRLPRPRPRPHRCPRP, the “shrunken log2 fold change” value is -0.0136.

Regarding RRIRKRPPRLPRPRPRPNRKPRP, the “shrunken log2 fold change” value was found to be 0.0065.

As for RRIRERPPRLPRPRPRPHKTPRP, the “shrunken log2 fold change” value was found to be 0.0137.

Take RRIRIRPPRLPRPRPRPCHPPRP: the “shrunken log2 fold change” value was -0.447.

Take RRIRHRPPRLPRPRPRPVWYPRP: the “shrunken log2 fold change” value worked out at 0.00395.

In the case of RRIRMRPPRLPRPRPRPTETPRP, the “shrunken log2 fold change” value was 0.511.

RRIRRRPPRLPRPRPRPMCSPRP: the “shrunken log2 fold change” value is -0.0511.

Turning to RRIRLRPPRLPRPRPRPNSRPRP, the “shrunken log2 fold change” value is -0.0164.

For RRIRRRPPRLPRPRPRPLFPPRP, the “shrunken log2 fold change” value is 0.0907.
